Source: patent US7687614 (University of California, dated 2010)

Molecular target: the molecule itself
Assay: SDS-PAGE not boiled, fluorescence imaging of the gel

B1: tdimer2(12) (tandem dimer of dimer2 with the 12 residue linker) (other)
chain: MRGSHHHHHHGMASMTGGQQMGRDLYDDDDKDPMVASSEDVIKEFMRFKVRMEGSVNGHEFEIEGEGEGRPYEGTQTAKLKVTKGGPLPFAWDILSPQFQYGSKAYVKHPADIPDYKKLSFPEGFKWERVMNFEDGGVVTVTQDSSLQDGTLIYKVKFRGTNFPPDGPVMQKKTMGWEASTERLYPRDGVLKGEIHQALKLKDGGHYLVEFKTIYMAKKPVQLPGYYYVDTKLDITSHNEDYTIVEQYERSEGRHHLFLGHGTGSTGSGSSMVASSEDVIKEFMRFKVRMEGSVNGHEFEIEGEGEGRPYEGTQTAKLKVTKGGPLPFAWDILSPQFQYGSKAYVKHPADIPDYKKLSFPEGFKWERVMNFEDGGVVTVTQDSSLQDGTLIYKVKFRGTNFPPDGPVMQKKTMGWEASTERLYPRDGVLKGEIHQALKLKDGGHYLVEFKTIYMAKKPVQLPGYYYVDTKLDITSHNEDYTIVEQYERSEGRHHLFL
notes: Exact junctions (SphI/SacI sites, start Met of second copy) are not spelled out
binding result: binds
